{"source": "paper PMC9555707", "target": "SmT1v3-R, tagless resistin-trimerized SARS-CoV-2 spike ectodomain, reference strain (SARS-CoV-2 | human) (UniProt P0DTC2)", "experiment": "SEC-MALS; UPLC-SEC on a 4.6 x 300 mm Acquity BEH450 column in PBS + 0.02% Tween-20, coupled to a miniDAWN MALS detector and Optilab T-rEX refractometer; trimer and hexamer populations by molecular weight", "note": "Several values for one entry are separate records, joined by “and”; a condition that tells them apart may be missing. Identical values can stand only once."}
{"substance": "SmT1v3-R, tagless resistin-trimerized SARS-CoV-2 spike ectodomain, reference strain (from UniProt P0DTC2 14-1208; Q9HD89-1 23-108)", "values": [{"measurement": "percent of the protein as hexamer", "value": 3, "unit": "%"}, {"measurement": "percent of the protein as trimer", "value": 96, "unit": "%"}, {"measurement": "stoichiometry N", "value": "3 and 6"}]}
